The values that follow come from patent publication US20140107039A1 (ROCKEFELLER UNIVERSITY, published 2014).

In the assay the target is Polycomb Repressive Complex 2 (PRC2), purified through FLAG-tagged human EED from HeLa or HEK293T nuclear … (human, UniProt O75530 1-441; Q15910 1-746). Nature of the assay: cell-based or functional assay.
Sequence of Polycomb Repressive Complex 2 (PRC2), purified through FLAG-tagged human EED from HeLa or HEK293T nuclear … (O75530 whole entry, chain 1 of 2): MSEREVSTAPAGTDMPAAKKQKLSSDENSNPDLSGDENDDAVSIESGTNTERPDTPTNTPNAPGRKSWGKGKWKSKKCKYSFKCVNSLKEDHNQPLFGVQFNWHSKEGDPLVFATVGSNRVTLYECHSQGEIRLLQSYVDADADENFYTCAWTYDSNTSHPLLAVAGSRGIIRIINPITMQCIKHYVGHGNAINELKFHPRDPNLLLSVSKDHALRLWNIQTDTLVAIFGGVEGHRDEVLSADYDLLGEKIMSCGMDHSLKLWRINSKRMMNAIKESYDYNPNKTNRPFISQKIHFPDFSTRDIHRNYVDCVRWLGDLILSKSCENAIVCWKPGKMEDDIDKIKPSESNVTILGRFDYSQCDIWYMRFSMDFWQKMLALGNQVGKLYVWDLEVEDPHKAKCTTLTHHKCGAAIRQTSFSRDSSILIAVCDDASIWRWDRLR
Sequence of Polycomb Repressive Complex 2 (PRC2), purified through FLAG-tagged human EED from HeLa or HEK293T nuclear … (Q15910 whole entry, chain 2 of 2): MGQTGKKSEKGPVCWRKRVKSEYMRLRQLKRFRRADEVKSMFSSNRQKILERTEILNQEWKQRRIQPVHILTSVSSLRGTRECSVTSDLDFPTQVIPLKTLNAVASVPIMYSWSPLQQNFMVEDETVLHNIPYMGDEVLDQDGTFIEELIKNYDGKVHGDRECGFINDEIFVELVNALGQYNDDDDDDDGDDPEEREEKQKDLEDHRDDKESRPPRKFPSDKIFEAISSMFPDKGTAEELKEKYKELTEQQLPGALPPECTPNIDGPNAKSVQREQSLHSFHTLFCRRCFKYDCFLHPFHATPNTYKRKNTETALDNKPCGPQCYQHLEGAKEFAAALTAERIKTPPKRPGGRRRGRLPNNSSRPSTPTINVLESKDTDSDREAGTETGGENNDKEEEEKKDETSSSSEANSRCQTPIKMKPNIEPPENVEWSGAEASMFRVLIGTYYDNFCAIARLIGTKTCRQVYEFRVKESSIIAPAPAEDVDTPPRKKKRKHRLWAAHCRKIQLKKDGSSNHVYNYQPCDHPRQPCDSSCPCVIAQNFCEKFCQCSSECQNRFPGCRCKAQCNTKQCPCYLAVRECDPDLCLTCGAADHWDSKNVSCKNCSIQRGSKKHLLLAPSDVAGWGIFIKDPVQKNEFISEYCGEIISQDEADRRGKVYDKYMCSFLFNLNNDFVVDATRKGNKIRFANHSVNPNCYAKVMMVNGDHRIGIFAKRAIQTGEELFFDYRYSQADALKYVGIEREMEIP

For the molecule KQLATKAARISAPSTGGVKK [H3 peptide (18-37) with Lys27 replaced by Ile], the “IC50, in vitro PRC2 methylation reactions” value stood at 8.9 µM.
